# From patent publication US8062638 (Chugai, dated 2011)
# Target: T1, human tissue factor (TF) on cells (human, UniProt P13726 33-295)
# T1 construct: also called human TF; the antigen
# Assay: cell ELISA on fixed J82 cells expressing TF
row,binding result,Binder
1,binds,"chimeric H chain / humanized L chain version b antibody (antibody, V domains shown, Expressed from N5KG4P (human IgG4-type); also called ch-b) VH: EVQLQQSGTNLVRPGALVKLSCKGSGFNIKDYYMHWVKQRPEQGLEWIGGNDPANGHSMYDPKFQGKASITADTSSNTAYLQLSSLTSEDTAVYFCARDSGYAMDYWGQGTSVTVSS VL: DIQMTQSPSSLSASVGDRVTITCKASQDIKSFLSWYQQKPGKAPKLLIYYATSLADGVPSRFSGSGSGTDYTLTISSLQPEDFATYYCLQHGESPYTFGGGTKVEIK"
2,binds,"chimeric H chain / humanized L chain version b2 antibody (antibody, V domains shown, Expressed from N5KG4P (human IgG4-type); also called ch-b2) VH: EVQLQQSGTNLVRPGALVKLSCKGSGFNIKDYYMHWVKQRPEQGLEWIGGNDPANGHSMYDPKFQGKASITADTSSNTAYLQLSSLTSEDTAVYFCARDSGYAMDYWGQGTSVTVSS VL: DIQMTQSPSSLSASVGDRVTITCKASQDIKSFLSWYQQKPEKAPKSLIYYATSLADGVPSRFSGSGSGTDYTLTISSLQPEDFATYYCLQHGESPYTFGGGTKVEIK"
3,binds,"chimeric H chain / humanized L chain version b1 antibody (antibody, V domains shown, Expressed from N5KG4P (human IgG4-type); also called ch-b1) VH: EVQLQQSGTNLVRPGALVKLSCKGSGFNIKDYYMHWVKQRPEQGLEWIGGNDPANGHSMYDPKFQGKASITADTSSNTAYLQLSSLTSEDTAVYFCARDSGYAMDYWGQGTSVTVSS VL: DIQMTQSPSSLSASVGDRVTITCKASQDIKSFLSWFQQKPGKSPKTLIYYATSLADGVPSRFSGSGSGTDYTLTISSLQPEDFATYYCLQHGESPYTFGGGTKVEIK"
4,binds,"chimeric H chain / humanized L chain version a antibody (antibody, V domains shown, Expressed from N5KG4P (human IgG4-type)) VH: EVQLQQSGTNLVRPGALVKLSCKGSGFNIKDYYMHWVKQRPEQGLEWIGGNDPANGHSMYDPKFQGKASITADTSSNTAYLQLSSLTSEDTAVYFCARDSGYAMDYWGQGTSVTVSS VL: DIQMTQSPSSLSASVGDRVTITCKASQDIKSFLSWYQQKPGKAPKLLIYYATSLADGVPSRFSGSGSGTDFTLTISSLQPEDFATYYCLQHGESPYTFGGGTKVEIK"
5,binds,"humanized H chain version b / chimeric L chain antibody (antibody, V domains shown, Expressed from N5KG4P (human IgG4-type)) VH: QVQLLESGAVLARPGTSVKISCKASGFNIKDYYMHWVKQRPGQGLEWIGGNDPANGHSMYDPKFQGRVTITADTSTNTAYMELSSLRSEDTAIYYCARDSGYAMDYWGQGTLVTVSS VL: DIKMTQSPSSMYASLGERVTITCKASQDIKSFLSWYQQKPWKSPKTLIYYATSLADGVPSRFSGSGSGQDYSLTINNLESDDTATYYCLQHGESPYTFGGGTKLEIK"
6,binds,"humanized H chain version c / chimeric L chain antibody (antibody, V domains shown, Expressed from N5KG4P (human IgG4-type)) VH: QVQLLESGAVLARPGTSVKISCKASGFNIKDYYMHWVKQRPGQGLEWIGGNDPANGHSMYDPKFQGRVTMLVDTSKNQFSLRLSSVTAADTAVYYCARDSGYAMDYWGQGTLVTVSS VL: DIKMTQSPSSMYASLGERVTITCKASQDIKSFLSWYQQKPWKSPKTLIYYATSLADGVPSRFSGSGSGQDYSLTINNLESDDTATYYCLQHGESPYTFGGGTKLEIK"
7,binds,"H chain humanized version b / L chain humanized version b antibody (antibody, V domains shown, also called b-b; humanized antibody version b-b) VH: QVQLLESGAVLARPGTSVKISCKASGFNIKDYYMHWVKQRPGQGLEWIGGNDPANGHSMYDPKFQGRVTITADTSTNTAYMELSSLRSEDTAIYYCARDSGYAMDYWGQGTLVTVSS VL: DIQMTQSPSSLSASVGDRVTITCKASQDIKSFLSWYQQKPGKAPKLLIYYATSLADGVPSRFSGSGSGTDYTLTISSLQPEDFATYYCLQHGESPYTFGGGTKVEIK"
8,binds,"humanized H chain version g / humanized L chain version b antibody (antibody, V domains shown, Expressed from N5KG4P (human IgG4-type); also called g-b) VH: QVQLLESGAVLARPGTSVKISCKASGFNIKDYYMHWVKQRPGQGLEWIGGNDPANGHSMYDPKFQGKATLTADESSSTAYMQLSSLRSEDSAVYSCARDSGYAMDYWGQGTLVTVSS VL: DIQMTQSPSSLSASVGDRVTITCKASQDIKSFLSWYQQKPGKAPKLLIYYATSLADGVPSRFSGSGSGTDYTLTISSLQPEDFATYYCLQHGESPYTFGGGTKVEIK"
9,binds,"humanized H chain version d3 / humanized L chain version b antibody (antibody, V domains shown, Expressed from N5KG4P (human IgG4-type); also called d3-b) VH: QVQLLESGAVLARPGTSVKISCKASGFNIKDYYMHWVRQAPGQGLEWIGGNDPANGHSMYDPKFQGRVTITADESTSTAYMELSSLRSEDSAVYFCARDSGYAMDYWGQGTLVTVSS VL: DIQMTQSPSSLSASVGDRVTITCKASQDIKSFLSWYQQKPGKAPKLLIYYATSLADGVPSRFSGSGSGTDYTLTISSLQPEDFATYYCLQHGESPYTFGGGTKVEIK"
10,binds,"humanized H chain version b / humanized L chain version c antibody (antibody, V domains shown, Human IgG4-type (N5KG4P series); also called b-c) VH: QVQLLESGAVLARPGTSVKISCKASGFNIKDYYMHWVKQRPGQGLEWIGGNDPANGHSMYDPKFQGRVTITADTSTNTAYMELSSLRSEDTAIYYCARDSGYAMDYWGQGTLVTVSS VL: DIQMTQSPSSLSASVGDRVTITCKASQDIKSFLSWYQQKPGKAPKLLIYYATSLADGVPSRFSGSGSGTDYTLTISSLQPEDIATYYCLQHGESPYTFGGGTKVEIK"
11,binds,"humanized H chain version e / chimeric L chain antibody (antibody, V domains shown, Expressed from N5KG4P (human IgG4-type)) VH: QVQLLESGAVLARPGTSVKISCKASGFNIKDYYMHWVKQRPGQGLEWIGGNDPANGHSMYDPKFQGRVSITADESTKIAYMELNSLRSEDTAVYFCARDSGYAMDYWGQGTLVTVSS VL: DIKMTQSPSSMYASLGERVTITCKASQDIKSFLSWYQQKPWKSPKTLIYYATSLADGVPSRFSGSGSGQDYSLTINNLESDDTATYYCLQHGESPYTFGGGTKLEIK"
12,binds,"humanized H chain version j / humanized L chain version b antibody (antibody, V domains shown, Expressed from N5KG4P (human IgG4-type); also called j-b) VH: QVQLLESGAVLARPGTSVKISCKASGFNIKDYYMHWVKQRPGQGLEWIGGNDPANGHSMYDPKFQGRVTFTADTSANTAYMELRSLRSADTAVYYCARDSGYAMDYWGQGTLVTVSS VL: DIQMTQSPSSLSASVGDRVTITCKASQDIKSFLSWYQQKPGKAPKLLIYYATSLADGVPSRFSGSGSGTDYTLTISSLQPEDFATYYCLQHGESPYTFGGGTKVEIK"
13,binds,"humanized H chain version i / humanized L chain version b1 antibody (antibody, V domains shown, Expressed from N5KG4P (human IgG4-type); also called i-b1) VH: QVQLLESGAVLARPGTSVKISCKASGFNIKDYYMHWVKQRPGQGLEWIGGNDPANGHSMYDPKFQGRVTITADTSTSTVFMELSSLRSEDTAVYYCARDSGYAMDYWGQGTLVTVSS VL: DIQMTQSPSSLSASVGDRVTITCKASQDIKSFLSWFQQKPGKSPKTLIYYATSLADGVPSRFSGSGSGTDYTLTISSLQPEDFATYYCLQHGESPYTFGGGTKVEIK"
14,binds,"H chain humanized version i / L chain humanized version b antibody (antibody, V domains shown, also called humanized antibody version i-b) VH: QVQLLESGAVLARPGTSVKISCKASGFNIKDYYMHWVKQRPGQGLEWIGGNDPANGHSMYDPKFQGRVTITADTSTSTVFMELSSLRSEDTAVYYCARDSGYAMDYWGQGTLVTVSS VL: DIQMTQSPSSLSASVGDRVTITCKASQDIKSFLSWYQQKPGKAPKLLIYYATSLADGVPSRFSGSGSGTDYTLTISSLQPEDFATYYCLQHGESPYTFGGGTKVEIK"
15,binds,"humanized H chain version i / chimeric L chain antibody (antibody, V domains shown, Expressed from N5KG4P (human IgG4-type)) VH: QVQLLESGAVLARPGTSVKISCKASGFNIKDYYMHWVKQRPGQGLEWIGGNDPANGHSMYDPKFQGRVTITADTSTSTVFMELSSLRSEDTAVYYCARDSGYAMDYWGQGTLVTVSS VL: DIKMTQSPSSMYASLGERVTITCKASQDIKSFLSWYQQKPWKSPKTLIYYATSLADGVPSRFSGSGSGQDYSLTINNLESDDTATYYCLQHGESPYTFGGGTKLEIK"
16,binds,"humanized H chain version b / humanized L chain version a antibody (antibody, V domains shown, Expressed from N5KG4P (human IgG4-type); also called b-a) VH: QVQLLESGAVLARPGTSVKISCKASGFNIKDYYMHWVKQRPGQGLEWIGGNDPANGHSMYDPKFQGRVTITADTSTNTAYMELSSLRSEDTAIYYCARDSGYAMDYWGQGTLVTVSS VL: DIQMTQSPSSLSASVGDRVTITCKASQDIKSFLSWYQQKPGKAPKLLIYYATSLADGVPSRFSGSGSGTDFTLTISSLQPEDFATYYCLQHGESPYTFGGGTKVEIK"
17,binds,"humanized H chain version d / chimeric L chain antibody (antibody, V domains shown, Expressed from N5KG4P (human IgG4-type)) VH: QVQLLESGAVLARPGTSVKISCKASGFNIKDYYMHWVKQRPGQGLEWIGGNDPANGHSMYDPKFQGRVTITADESTSTAYMELSSLRSEDSAVYFCARDSGYAMDYWGQGTLVTVSS VL: DIKMTQSPSSMYASLGERVTITCKASQDIKSFLSWYQQKPWKSPKTLIYYATSLADGVPSRFSGSGSGQDYSLTINNLESDDTATYYCLQHGESPYTFGGGTKLEIK"
18,binds,"humanized H chain version j / chimeric L chain antibody (antibody, V domains shown, Expressed from N5KG4P (human IgG4-type)) VH: QVQLLESGAVLARPGTSVKISCKASGFNIKDYYMHWVKQRPGQGLEWIGGNDPANGHSMYDPKFQGRVTFTADTSANTAYMELRSLRSADTAVYYCARDSGYAMDYWGQGTLVTVSS VL: DIKMTQSPSSMYASLGERVTITCKASQDIKSFLSWYQQKPWKSPKTLIYYATSLADGVPSRFSGSGSGQDYSLTINNLESDDTATYYCLQHGESPYTFGGGTKLEIK"
19,binds,"humanized H chain version d / humanized L chain version b antibody (antibody, V domains shown, Expressed from N5KG4P (human IgG4-type); also called d-b) VH: QVQLLESGAVLARPGTSVKISCKASGFNIKDYYMHWVKQRPGQGLEWIGGNDPANGHSMYDPKFQGRVTITADESTSTAYMELSSLRSEDSAVYFCARDSGYAMDYWGQGTLVTVSS VL: DIQMTQSPSSLSASVGDRVTITCKASQDIKSFLSWYQQKPGKAPKLLIYYATSLADGVPSRFSGSGSGTDYTLTISSLQPEDFATYYCLQHGESPYTFGGGTKVEIK"
20,binds,"humanized H chain version b / humanized L chain version b2 antibody (antibody, V domains shown, Expressed from N5KG4P (human IgG4-type); also called b-b2) VH: QVQLLESGAVLARPGTSVKISCKASGFNIKDYYMHWVKQRPGQGLEWIGGNDPANGHSMYDPKFQGRVTITADTSTNTAYMELSSLRSEDTAIYYCARDSGYAMDYWGQGTLVTVSS VL: DIQMTQSPSSLSASVGDRVTITCKASQDIKSFLSWYQQKPEKAPKSLIYYATSLADGVPSRFSGSGSGTDYTLTISSLQPEDFATYYCLQHGESPYTFGGGTKVEIK"
21,binds,"H chain humanized version i / L chain humanized version b2 antibody (antibody, V domains shown, also called i-b2; humanized anti-human TF antibody version i-b2) VH: QVQLLESGAVLARPGTSVKISCKASGFNIKDYYMHWVKQRPGQGLEWIGGNDPANGHSMYDPKFQGRVTITADTSTSTVFMELSSLRSEDTAVYYCARDSGYAMDYWGQGTLVTVSS VL: DIQMTQSPSSLSASVGDRVTITCKASQDIKSFLSWYQQKPEKAPKSLIYYATSLADGVPSRFSGSGSGTDYTLTISSLQPEDFATYYCLQHGESPYTFGGGTKVEIK"
22,binds,"humanized H chain version b3 / humanized L chain version b antibody (antibody, V domains shown, Expressed from N5KG4P (human IgG4-type); also called b3-b) VH: QVQLLESGAVLARPGTSVKISCKASGFNIKDYYMHWVRQAPGQGLEWIGGNDPANGHSMYDPKFQGRVTITADTSTNTAYMELSSLRSEDTAIYYCARDSGYAMDYWGQGTLVTVSS VL: DIQMTQSPSSLSASVGDRVTITCKASQDIKSFLSWYQQKPGKAPKLLIYYATSLADGVPSRFSGSGSGTDYTLTISSLQPEDFATYYCLQHGESPYTFGGGTKVEIK"
